From patent US20230172982A1

Biological target: CD20, on SUP-B15 CD20+ cells (UniProt P11836)
Experiment: cell-based or functional assay

UniProt P11836, sequence (P11836 whole entry): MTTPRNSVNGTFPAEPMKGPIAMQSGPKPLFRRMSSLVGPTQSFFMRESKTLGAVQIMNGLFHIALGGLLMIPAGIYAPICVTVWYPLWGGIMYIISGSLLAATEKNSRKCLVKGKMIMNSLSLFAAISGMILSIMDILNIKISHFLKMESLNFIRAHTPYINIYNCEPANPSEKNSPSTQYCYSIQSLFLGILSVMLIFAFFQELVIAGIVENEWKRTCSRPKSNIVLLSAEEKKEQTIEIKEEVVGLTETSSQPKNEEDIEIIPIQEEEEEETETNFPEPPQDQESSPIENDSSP

ADCC by polyclonal BCMA.CAR t-haNK cells (quadracistronic): 60%
ADCC by polyclonal BCMA.CAR t-haNK cells (tricistronic): 55%
Substance: rituximab (antibody)
